Data from US20100298225A1, “PEPTIDE GAP JUNCTION MODULATORS” (published 2010).

Assays:
[1] = target: T1, Recombinant Cx43CT (carboxyl terminal domain of connexin43, sequence 255-382 of rCx43 preceded by GPLG) (rat, UniProt P08050); assay: SPR, Cx43CT immobilised, peptide at 1 mM
Procedure: (§1) Recombinant Cx43CT was covalently bound to a carboxylmethyl dextran matrix (Salamon et al., “Surface Plasmon Resonance Spectroscopy as a Tool for Investigating the Biochemical and Biophysical Properties of Membrane Protein Systems. II: Applications to Biological Systems,” Biochim. Biophys. Acta 1331(2):131-152 (1997), which is hereby incorporated by reference in its entirety). Specific peptides were presented and, when feasible, dissociation constants (KD) were calculated from the time course of binding and unbinding of the ligand, using a 1:1 (Langmuir) association and dissociation kinetic model (Biacore software package). In both phases (association and dissociation), the first 5-8 seconds of recording were not included in the fit, to avoid artifacts resulting from peptide distribution within the flow cells (Lang et al., “Surface Plasmon Resonance as a Method to Study the Kinetics and Amplitude of Protein-protein Binding,” in PRACTICAL METHODS IN CARDIOVASCULAR […] 936-947 (Stefan Dhein, Friedrich Wilhelm Mohr & Mario Delmar eds., 2005), which is hereby incorporated by reference in its entirety).
(§2) The peptides shown in table 2 and 3 were tested for binding to the carboxyl terminal domain (CT) of Cx43 using Surface Plasmon Resonance (“SPR”). SPR is a method that was used to identify the original RXPE sequence (Shibayama et al., “Identification of a Novel Peptide that Interferes with the Chemical Regulation of Connexin-43,” Circ. Res. 98:1365-72 (2006)).

[2] = target: T1, Recombinant Cx43CT (carboxyl terminal …); assay: SPR, Cx43CT immobilised, peptide at 25 uM
Procedure: as §1, §2

[3] = target: T1, Recombinant Cx43CT (carboxyl terminal …); assay: SPR, Cx43CT immobilised, peptide at 100 uM
Procedure: as §1, §2

[4] = target: T1, Recombinant Cx43CT (carboxyl terminal …); assay: SPR, Cx43CT immobilised, peptide at 250 uM
Procedure: as §1, §2

[5] = target: T1, Recombinant Cx43CT (carboxyl terminal …); assay: SPR, Cx43CT immobilised, peptide at 500 uM
Procedure: as §1, §2

[6] = target: T1, Recombinant Cx43CT (carboxyl terminal …); assay: SPR, Cx43CT immobilised, peptide at 1 mM, response normalised on Mw
From the text: (§3) Biophys. […] Commun. 8(4-6):225-229 (2001); Lang et al., “Surface Plasmon Resonance as a Method to Study the Kinetics and Amplitude of Protein-protein Binding,” in PRACTICAL METHODS IN CARDIOVASCULAR […] 936-947 (Stefan Dhein, Friedrich Wilhelm Mohr & Mario Delmar eds., 2005), which are hereby incorporated by reference in their entirety). Recombinant Cx43CT was covalently bound to a carboxylmethyl dextran matrix (Salamon et al., “Surface Plasmon Resonance Spectroscopy as a Tool for Investigating the Biochemical and Biophysical Properties of Membrane Protein Systems. II: Applications to Biological Systems,” Biochim. Biophys. Acta 1331(2):131-152 (1997), which is hereby incorporated by reference in its entirety). Specific peptides were presented and, when feasible, dissociation constants (KD) were calculated from the time course of binding and unbinding of the ligand, using a 1:1 (Langmuir) association and dissociation kinetic model (Biacore software package). In both phases (association and dissociation), the first 5-8 seconds of recording were not included in the fit, to avoid artifacts resulting from peptide distribution within the flow cells (Lang et al., “Surface Plasmon Resonance as a Method to Study the Kinetics and Amplitude of Protein-protein Binding,” in PRACTICAL METHODS IN CARDIOVASCULAR […] 936-947 (Stefan Dhein, Friedrich Wilhelm Mohr & Mario Delmar eds., 2005), which is hereby incorporated by reference in its entirety).
(§4) The peptides shown in table 2 and 3 were tested for binding to the carboxyl terminal domain (CT) of Cx43 using Surface Plasmon Resonance (“SPR”). SPR is a method that was used to identify the original RXPE sequence (Shibayama et al., “Identification of a Novel Peptide that Interferes with the Chemical Regulation of Connexin-43,” Circ. Res. 98:1365-72 (2006)). The amplitude of the response is also a function of the mass of the ligate, and the normalized data according to the individual peptide Mw's are shown in table 3.

[7] = target: T1, Recombinant Cx43CT (carboxyl terminal …); assay: SPR, Cx43CT immobilised, peptide at 25 uM, response normalised on Mw
From the text: as §3, §4

[8] = target: T1, Recombinant Cx43CT (carboxyl terminal …); assay: SPR, Cx43CT immobilised, peptide at 100 uM, response normalised on Mw
From the text: as §3, §4

[9] = target: T1, Recombinant Cx43CT (carboxyl terminal …); assay: SPR, Cx43CT immobilised, peptide at 250 uM, response normalised on Mw
From the text: as §3, §4

[10] = target: T1, Recombinant Cx43CT (carboxyl terminal …); assay: SPR, Cx43CT immobilised, peptide at 500 uM, response normalised on Mw
From the text: as §3, §4

T1 sequence (P08050 other isoform, or with tags, fused parts or gaps limits assumed): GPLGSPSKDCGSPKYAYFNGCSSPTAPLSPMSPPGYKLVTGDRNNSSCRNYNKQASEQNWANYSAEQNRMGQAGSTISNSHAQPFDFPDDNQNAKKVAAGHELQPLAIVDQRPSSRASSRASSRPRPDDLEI

| Binder | SPR respons at 1 mM [1] | SPR respons at 25 uM [2] | SPR respons at 100 uM [3] | SPR respons at 250 uM [4] | SPR respons at 500 uM [5] | SPR normalised on Mw at 1 mM [6] | SPR normalised on Mw at 25 uM [7] | SPR normalised on Mw at 100 uM [8] | SPR normalised on Mw at 250 uM [9] | SPR normalised on Mw at 500 uM [10] |
| --- | --- | --- | --- | --- | --- | --- | --- | --- | --- | --- |
| Ac-RRNYGGSAVPFYSHRRNY-NH2 [Compound 2510] | 1190 arbitrary units | 40.3 arbitrary units | 176 arbitrary units | 332 arbitrary units | 643 arbitrary units | 53 (SPRrespons*100)/Mw | 1.8 (SPRrespons*100)/Mw | 7.9 (SPRrespons*100)/Mw | 14.8 (SPRrespons*100)/Mw | 28.7 (SPRrespons*100)/Mw |
| Ac-RRNYAVPFRRNY-NH2 [Compound 2511] | 692 arbitrary units | 16.2 arbitrary units | 90.5 arbitrary units | 214 arbitrary units | 390 arbitrary units | 41.9 (SPRrespons*100)/Mw | 1 (SPRrespons*100)/Mw | 5.5 (SPRrespons*100)/Mw | 13 (SPRrespons*100)/Mw | 23.6 (SPRrespons*100)/Mw |
| Ac-RRNYGGGRRNY-NH2 [Compound 2509] | 479 arbitrary units | 21.5 arbitrary units | 62.5 arbitrary units | 148 arbitrary units | 281 arbitrary units | 34 (SPRrespons*100)/Mw | 1.5 (SPRrespons*100)/Mw | 4.4 (SPRrespons*100)/Mw | 10.5 (SPRrespons*100)/Mw | 19.9 (SPRrespons*100)/Mw |
| Ac-YNRRGGGSAVPFYSHSYNRR-NH2 [Compound 2496] | 1400 arbitrary units | 67.7 arbitrary units | 156 arbitrary units | 358 arbitrary units | 739 arbitrary units | 58.8 (SPRrespons*100)/Mw | 2.8 (SPRrespons*100)/Mw | 6.5 (SPRrespons*100)/Mw | 15 (SPRrespons*100)/Mw | 31 (SPRrespons*100)/Mw |
| Ac-RRNYRRNY-NH2 [Compound 2497] | 565 arbitrary units | 30.2 arbitrary units | 84.2 arbitrary units | 202 arbitrary units | 328 arbitrary units | 45.7 (SPRrespons*100)/Mw | 2.4 (SPRrespons*100)/Mw | 6.8 (SPRrespons*100)/Mw | 16.3 (SPRrespons*100)/Mw | 26.5 (SPRrespons*100)/Mw |
| Ac-YNRR-NH2 [Compound 2499] | 69.4 arbitrary units | – | – | – | – | 10.7 (SPRrespons*100)/Mw | – | – | – | – |
| Ac-RRNYSAVPFYSHSRRNY-NH2 [Compound 2506] | 1170 arbitrary units | 51.7 arbitrary units | 117 arbitrary units | 327 arbitrary units | 562 arbitrary units | 53 (SPRrespons*100)/Mw | 2.3 (SPRrespons*100)/Mw | 5.3 (SPRrespons*100)/Mw | 14.8 (SPRrespons*100)/Mw | 25.4 (SPRrespons*100)/Mw |
| Ac-RRNYSHSRRNY-NH2 [Compound 2507] | 703 arbitrary units | 42.3 arbitrary units | 114 arbitrary units | 254 arbitrary units | 438 arbitrary units | 45.4 (SPRrespons*100)/Mw | 2.7 (SPRrespons*100)/Mw | 7.3 (SPRrespons*100)/Mw | 16.4 (SPRrespons*100)/Mw | 28.3 (SPRrespons*100)/Mw |
| Ac-RRNYVPRRNY-NH2 [Compound 2512] | 395 arbitrary units | 14.8 arbitrary units | 50.7 arbitrary units | 117 arbitrary units | 227 arbitrary units | 27.5 (SPRrespons*100)/Mw | 1 (SPRrespons*100)/Mw | 3.5 (SPRrespons*100)/Mw | 8.2 (SPRrespons*100)/Mw | 15.9 (SPRrespons*100)/Mw |
| Ac-RRNY-NH2 [Compound 2498] | 91 arbitrary units | – | – | – | 50.9 arbitrary units | 14 (SPRrespons*100)/Mw | – | – | – | 7.9 (SPRrespons*100)/Mw |
| Ac-RRNYGGGSAVPFYRRNY-NH2 [Compound 2508] | 1020 arbitrary units | 31.1 arbitrary units | 122 arbitrary units | 285 arbitrary units | 547 arbitrary units | 49.4 (SPRrespons*100)/Mw | 1.5 (SPRrespons*100)/Mw | 5.9 (SPRrespons*100)/Mw | 13.7 (SPRrespons*100)/Mw | 26.4 (SPRrespons*100)/Mw |
